Self-cleavage data for 38 variants are collected here from the RNAGym collection of RNA variant scans (doi:10.7554/elife.80360).

First the molecules themselves.
B1: Hairpin Ribozyme (parent)
chain: GUCCUCUUUCACGUGCGCGUGAAAGAGAGAAGUGAACCAGAGAAACACACGUUGUGGUAUAUUACCUGGUA

Variants of B1 are the subject of the data set. In words: self-cleavage, relative activity (ratio to wild type); higher = more cleavage; co-transcriptional.
Regarding GUCCGCUUUCACGUGCGCGUGAGAGAGAGAAGUGAACCAGAGAAACACACGUUGUGGUAUAUUACCUGGUA [U5G A23G], the self-cleavage turned out to be 0.372. For GUCCGCUUUCACGUGCGCGUGAAAGAGAGAAGUGAACCAGAGAAGCACACGUUGUGGUAUAUUACCUGGUA [U5G A45G] the value was 0.121. Next, GUCCCCUUUCACGUGCGCGUGAAAGAGAGAAGUGAACCAGAGAAACACACGUUGUGGUAUAUUACCCGGUA [U5C U67C]: 0.144; GUCCGCUUUCACGUGCGCGUGAAAGAGAGAAGUGAACCAGUGAAACACACGUUGUGGUAUAUUACCUGGUA [U5G A41U]: 0.607. Next, GUCCGCUUUCACGUGCGCGUGAAAGAGAGAAGUGAACCAGGGAAACACACGUUGUGGUAUAUUACCUGGUA [U5G A41G]: 0.129; GUCCGCUUUCACGUGCGCGUGAAAGAGAGAAGUGAACCAGCGAAACACACGUUGUGGUAUAUUACCUGGUA [U5G A41C]: 0.571; GUCCGCUUUCACGUGCGCGUGAAAGAGAGAAGUGACCCAGAGAAACACACGUUGUGGUAUAUUACCUGGUA [U5G A36C]: 0.38.

GUCCGCUUUCACGUGCGCGUGAAAGGGAGAAGUGAACCAGAGAAACACACGUUGUGGUAUAUUACCUGGUA [U5G A26G]: the self-cleavage is 0.286. Next, GUCCGCUUUCACGUGCGCGUGAAAGUGAGAAGUGAACCAGAGAAACACACGUUGUGGUAUAUUACCUGGUA [U5G A26U]: 0.51; GUCCCCUUUCACGUGCGCGUGAAAGAGAGAAGUGAACCAGAGAAACACACGUUGUGGUAUAUGACCUGGUA [U5C U63G]: 0.0578; GUCCCCUUUCACGUGCGCGUGAAAGAGAGAAGUGAACCAGAGAAACACACGUUGGGGUAUAUUACCUGGUA [U5C U55G]: 0.351. For GUCCGCUUUCACGUGCGCGUGAAAGAGUGAAGUGAACCAGAGAAACACACGUUGUGGUAUAUUACCUGGUA [U5G A28U] the value was 0.242; for GUCCGCUUUCACGUGCGCGUGAAAGAGCGAAGUGAACCAGAGAAACACACGUUGUGGUAUAUUACCUGGUA [U5G A28C], 0.0791; for GUCCGCUUUCACGUGCGCGUGAAAGAGAGAAGUGAACCAGAGUAACACACGUUGUGGUAUAUUACCUGGUA [U5G A43U], 0.155.

For the variant GUCCGCUUUCACGUGCGCGUGAAAGAGAGAAGUGAACCAGAGCAACACACGUUGUGGUAUAUUACCUGGUA [U5G A43C], the self-cleavage is 0.269. With GUCCGCUUUCACGUGCGCGUGAAGGAGAGAAGUGAACCAGAGAAACACACGUUGUGGUAUAUUACCUGGUA [U5G A24G], the self-cleavage is 0.331. As for GUCCGCUUUCACGUGCGCGUGAAAGAGAGAAGUGAACCAGAGAAACACACGUUGUGGUAUAUUUCCUGGUA [U5G A64U], the self-cleavage is 0.161. Next, GUCCGCUUUCACGUGCGCGUGAAAGAGAGAAGUGAACCGGAGAAACACACGUUGUGGUAUAUUACCUGGUA [U5G A39G]: 0.0943; GUCCGCUUUCACGUGCGCGUGAAAGAGAGAAGUGAACCAGAGAAACACACGUUGUGGUAUCUUACCUGGUA [U5G A61C]: 0.112. For GUCCGCUUUCACGUGCGCGUGAAAGAGAGAAGUGAACCAGAGAAACACACGUUGUGGUAUUUUACCUGGUA [U5G A61U] the value was 0.108; for GUCCGCUUUCACGUGCGCGUGAAAGAGAGAAGUGAACCAGAGAAACACACGUUGUGGUAUAUUACCUGGUA [U5G], 0.324. For GUCCGCUUUCACGUGCGCGUGAAAGAGAGAAGUGAACCAGAGAUACACACGUUGUGGUAUAUUACCUGGUA [U5G A44U] the value was 0.093.

Turning to GUCCGCUUUCACGUGCGGGUGAAAGAGAGAAGUGAACCAGAGAAACACACGUUGUGGUAUAUUACCUGGUA [U5G C18G], the self-cleavage turned out to be 0.577.

As for GUCCCCUUUCACGUGCGCGUGAAAGAGAGAAGUGAACCAGAGAAACACACGUUGUGGAAUAUUACCUGGUA [U5C U58A], the self-cleavage turned out to be 0.21. Turning to GUCCCCUUUCACGUGCGCGUGAAAGAGAGAAGUGAACCAGAGAAACACACGUUGUGGCAUAUUACCUGGUA [U5C U58C], the self-cleavage is 0.496.

GUCCGCUUUCACGUGCGCGUGAAAGAGAGAAGUGAACCAGAGAAACGCACGUUGUGGUAUAUUACCUGGUA [U5G A47G]: the self-cleavage was determined as 0.123. For GUCCGCUUUCACGUGCGCGUGAAAGAGAGAAGUGCACCAGAGAAACACACGUUGUGGUAUAUUACCUGGUA [U5G A35C] the value was 0.254. Next, GUCCGCUUUCACGUGCGCGUGAAAGAGAGAAGUGGACCAGAGAAACACACGUUGUGGUAUAUUACCUGGUA [U5G A35G]: 0.36; GUCCCCUUUCACGUGCGCGUGAAAGAGAGAAGGGAACCAGAGAAACACACGUUGUGGUAUAUUACCUGGUA [U5C U33G]: 0.208.

With GUCCCCUUUCACGUGCGCGUGAAAGAGAGAAGCGAACCAGAGAAACACACGUUGUGGUAUAUUACCUGGUA [U5C U33C], the self-cleavage turned out to be 0.0316. Next, GUCCCCUUUCACGUGCGCGUGAAAGAGAGAAGAGAACCAGAGAAACACACGUUGUGGUAUAUUACCUGGUA [U5C U33A]: 0.149. Consider GUCCGCUUUCACGUGCGCGUGAAAGAGAGAUGUGAACCAGAGAAACACACGUUGUGGUAUAUUACCUGGUA [U5G A31U], for which the self-cleavage was found to be 0.0772.

Consider GUCCGCUUUCCCGUGCGCGUGAAAGAGAGAAGUGAACCAGAGAAACACACGUUGUGGUAUAUUACCUGGUA [U5G A11C], for which the self-cleavage is 0.175. Next, GUCCGCUUUCACGUGCGCGUGAAAGAGAGGAGUGAACCAGAGAAACACACGUUGUGGUAUAUUACCUGGUA [U5G A30G]: 0.144; GUCCCCUUUCACGUGCGCGUGAAAGAGAGAAGUGAACCAGAGAAACACACGUUGUGGUAUAUUACCUGGCA [U5C U70C]: 0.277; GUCCGCUUUCACGUGCGCGUGAAAGAGAGAAGUGAACCAGAGAAACACACGUUGUGGUAUAUUACCUGGUC [U5G A71C]: 0.732. For GUCCGCUUUCACGUGCGCGUGAAAGAGAGAAGUGAACCAGAGAAACACUCGUUGUGGUAUAUUACCUGGUA [U5G A49U], the self-cleavage was 0.127. GUCCCCUUUCACGUGCGCGUGAAAGAGAGAAGUGAACCAGAGAAACACACGUUGUGGUAUAGUACCUGGUA [U5C U62G]: the self-cleavage is 0.159.
